Results: article PMC5835687, “Great Cause—Small Effect: Undeclared Genetically Engineered Orange Petunias Harbor an Inefficient Dihydroflavonol 4-Reductase” (Frontiers in Plant Science, 2018)

B1: recombinant A1 protein (maize DFR) (Zea mays) (protein)
chain: MERGAGASEKGTVLVTGASGFVGSWLVMKLLQAGYTVRATVRDPANVGKTKPLMDLPGATERLSIWKADLAEEGSFHDAIRGCTGVFHVATPMDFLSKDPENEVIKPTVEGMISIMRACKEAGTVRRIVFTSSAGTVNLEERQRPVYDEESWTDVDFCRRVKMTGWMYFVSKTLAEKAALAYAAEHGLDLVTIIPTLVVGPFISASMPPSLITALALITGNAPHYSILKQVQLIHLDDLCDAEIFLFENPAAAGRYVCSSHDVTIHGLAAMLRDRYPEYDVPQRFPGIQDDLQPVRFSSKKLQDLGFTFRYKTLEDMFDAAIRTCQEKGLIPLATAAGGDGFASVRAPGETEATIGA
notes: full-length A1 cDNA in pGEX-6P-1, GST fusion from E. coli, GST tag removed, purified; A1 CDS 1,074 bp
B2: recombinant PhDFR (Petunia × hybrida DFR) (Petunia x hybrida) (protein)
chain: MASEAVHAPSPPVAVPTVCVTGAAGFIGSWLVMRLLERGYNVHATVRDPENKKKVKHLLELPKADTNLTLWKADLTVEGSFDEAIQGCQGVFHVATPMDFESKDPENEVIKPTVRGMLSIIESCAKANTVKRLVFTSSAGTLDVQEQQKLFYDQTSWSDLDFIYAKKMTGWMYFASKILAEKAAMEEAKKKNIDFISIIPPLVVGPFITPTFPPSLITALSLITGNEAHYCIIKQGQYVHLDDLCEAHIFLYEHPKADGRFICSSHHAIIYDVAKMVREKWPEYYVPTEFKGIDKDLPVVSFSSKKLTDMGFQFKYTLEDMYKGAIDTCRQKQLLPFSTRSAEDNGHNREAIAISAQNYASGKENAPVANHTEMLSNVEV

Tests used:
purified protein = substrate: O=C1c2c(O)cc(O)cc2O[C@H](c2cc(O)c(O)c(O)c2)[C@H]1O; experiment: purified protein; conditions: NADPH-dependent reduction; labelled compound
[1] = substrate: O=C1c2c(O)cc(O)cc2O[C@H](c2ccc(O)c(O)c2)[C@H]1O; experiment: DFR enzyme assay, radiolabelled substrate, as previously described; type: biochemical, Zea mays; conditions: NADPH-dependent reduction; labelled compound

Row | Protein | Km (purified protein) [µM] | kcat (purified protein) [s⁻¹] | Km [1] [µM] | kcat [1] [s⁻¹]
1 | B1 | 3.1 | 0.87 | 2.9 | 0.70
2 | B2 | 1.3 | 2.14 | – | –
